{
  "source": "patent US20240360195A1",
  "about": "(HELMHOLTZ ZENTRUM M NCHEN DEUTSCHES FORSCHUNGSZENTRUM F R …, published 2024)",
  "binders": {"B1": {"name": "Fab6A10 dimer (other)", "heavy": "QVQLKESGPGLVQPSETLSLTCTVSGFSLTTYSVSWVRQPSGKGPEWMGRMWYDGDTVYNSALKSRLSISRDTSKNQVFLKMNSLETDETGTYYCTRDFGYFDGSSPFDYWGQGVMVTVSSASTKGPSVFPLAPSSKSTSGGTAALGCLVKDYFPEPVTVSWNSGALTSGVHTFPAVLQSSGLYSLSSVVTVPSSSLGTQTYICNVNHKPSNTKVDKKVEPKSCDKTHT", "light": "RCPVDIVLTQSPATLSVTPGESVSLSCRASQGISTSIHWYQQKSNESPRLLIKFASQSISGIPSRFSGSGSGTDFTLSINRVESEDFSVYFCQQTYSLPYTFGAGTKLELKRTVAAPSVFIFPPSDEQLKSGTASVVCLLNNFYPREAKVQWKVDNALQSGNSQESVTEQDSKDSTYSLSSTLTLSKADYEKHKVYACEVTHQGLSSPVTKSFNRGEC", "modifications": "additional non-naturally occurring cysteine at the N-terminus of the VL region (N-terminus RCPVDIVLTQ..., SEQ ID NO: 18) forms a disulfide bond with the same cysteine of the second Fab monomer", "notes": "also called 6A10 Fab dimers; 6A10Fab dimers"}},
  "target": "T1, human carbonic anhydrase XII (CA12) on A549 lung cancer cells (human, UniProt O43570 25-354)",
  "T1 construct": "whole, on cells; No recombinant protein was used; also called CA-XII; CA XII",
  "T1 sequence (O43570 25-354)": "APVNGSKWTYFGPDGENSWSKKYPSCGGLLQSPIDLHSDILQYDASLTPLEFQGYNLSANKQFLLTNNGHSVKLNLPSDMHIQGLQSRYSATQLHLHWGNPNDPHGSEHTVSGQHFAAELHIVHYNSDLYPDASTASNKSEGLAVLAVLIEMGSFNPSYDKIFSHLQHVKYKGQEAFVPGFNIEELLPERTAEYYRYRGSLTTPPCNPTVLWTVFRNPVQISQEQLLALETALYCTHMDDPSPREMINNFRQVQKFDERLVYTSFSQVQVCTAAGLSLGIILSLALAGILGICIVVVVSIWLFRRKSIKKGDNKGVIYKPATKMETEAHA",
  "assay": "flow cytometry on A549 cells, serial dilution, Cy5-labeled donkey anti-human IgG secondary, pH 7.4",
  "method": "50.000 A549 cells were incubated with a serial dilution of Monomers or Dimers (6A10). After washing, cells were incubated with a Cy5-labeled secondary antibody (donkey anti-human IgG light and heavy chain). Binding of the secondary antibody was analyzed with a BD FACSCanto and the DIVA software. RU=relative light units.\nAfter washing, cells were incubated with a Cy5-labeled secondary antibody (donkey anti-human IgG light and heavy chain). Binding of the secondary antibody was analyzed with a BD FACSCanto and the DIVA software. RU=relative light units.\nCA12-positive A549 cells were incubated with different amounts of Fab6A10 dimers or Fab6A 10 monomers at the indicated pH, followed by an incubation of a suitable Cy5-labeled secondary antibody at neutral pH (approx. 7.2).",
  "data": [
    {"binder": "B1", "values": [
      {"measurement": "binding result", "value": "binds"}
    ]}
  ]
}
